The text below walks through data of paper PMC8034618.

This series has as its system LARP1 C-terminal fragment (extended DM15) WT (Homo sapiens). Description: EMSA. The note with it: m7Gppp cap; EMSA: 20 mM Tris-HCl pH 8, 150 mM NaCl, 10% glycerol, 1 mM DTT, 0.5 ug tRNA, 1 ug BSA in 10 ul; on ice 30 min; 7-8% native 0.5x TBE gel at 4 C; RNA <=200 pM. In general terms: A gel shift assay detects complexes by their altered migration in electrophoresis.

The substance m7G-RPS6-UTR (capped RPS6 20-mer) returned a Kd of 0.153 µM.

A word on the Kd: it is the equilibrium constant for the complex coming apart. The low end stands for tighter binding, the high end for weaker binding.
